IntAct's records for PubMed 20691684

B1: NSFL1 cofactor p47 (Rattus norvegicus (Rat)), O35987 (parent)
chain: MAEERQDALREFVAVTGAEEDRARFFLESAGWDLQIALASFYEDGGDEDIVTISQATPSSVSRGTAPSDNRVTSFRDLIHDQDEEEEEEEGQRFYAGGSERSGQQIVGPPRKKSPNELVDDLFKGAKEHGAVAVERVTKSPGETSKPRPFAGGGYRLGAAPEEESAYVAGERRRHSGQDVHVVLKLWKTGFSLDNGDLRSYQDPSNAQFLESIRRGEVPAELRRLAHGGQVNLDMEDHRDEDFVKPKGAFKAFTGEGQKLGSTAPQVLNTSSPAQQAENEAKASSSILINEAEPTTNIQIRLADGGRLVQKFNHSHRISDIRLFIVDARPAMAATSFVLMTTFPNKELADENQTLKEANLLNAVIVQRLT
B2: UBX domain-containing protein 2B (Mus musculus), Q0KL01 (parent)
chain: MAEGGRAEPEEQERGSSRPRPPSARDLQLALAELYEDEMKCKSSKPDRSTPATCRSPRTPPHRLYSGDHKYDGLHIVQPPTGKIVNELFKEAREHGAVPLNEATRSSREDKTKSFTGGGYRLGNSFYKRSEYIYGENQLQDVQVLLKLWRNGFSLDDGELRPYSDPTNAQFLESVKRGETPLELQRLVHGAQVNLDMEDHQDQEYIKPRLRFKAFSGEGQKLGSLTPEIVSTPSSPEEEDKSILNAAVLIDDSMPTTKIQIRLADGSRLVQRFNSTHRILDVRDFIVRSRPEFATTDFILVTSFPSKELTDETVTLQEADILNTVILQQLK

Variants of: B1
Details: with tera_rat Vcp
Target sequence in this assay (P46462 whole entry): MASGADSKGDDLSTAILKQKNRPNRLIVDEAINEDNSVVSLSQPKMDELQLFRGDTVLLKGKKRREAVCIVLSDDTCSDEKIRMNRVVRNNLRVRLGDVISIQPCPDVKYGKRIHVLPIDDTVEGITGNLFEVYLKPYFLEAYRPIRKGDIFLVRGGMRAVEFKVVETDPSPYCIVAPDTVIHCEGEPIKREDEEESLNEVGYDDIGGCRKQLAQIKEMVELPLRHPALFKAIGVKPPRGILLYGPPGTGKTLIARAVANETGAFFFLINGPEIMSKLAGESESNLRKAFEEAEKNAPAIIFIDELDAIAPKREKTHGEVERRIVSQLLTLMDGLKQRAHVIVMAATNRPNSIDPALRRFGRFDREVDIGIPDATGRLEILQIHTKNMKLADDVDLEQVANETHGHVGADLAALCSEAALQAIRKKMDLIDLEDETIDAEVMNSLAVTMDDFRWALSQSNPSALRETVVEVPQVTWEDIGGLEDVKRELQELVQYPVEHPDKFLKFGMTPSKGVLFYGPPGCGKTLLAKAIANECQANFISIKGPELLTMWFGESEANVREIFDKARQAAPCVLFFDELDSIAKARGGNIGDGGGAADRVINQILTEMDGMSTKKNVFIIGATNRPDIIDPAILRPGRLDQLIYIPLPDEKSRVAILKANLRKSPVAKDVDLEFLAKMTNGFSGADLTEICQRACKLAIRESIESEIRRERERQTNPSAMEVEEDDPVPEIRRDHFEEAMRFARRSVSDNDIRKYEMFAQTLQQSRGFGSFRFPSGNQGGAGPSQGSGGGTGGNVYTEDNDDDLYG
In the case of F253S, the “effect of a mutation on the interaction” value is reported as “disrupting interaction”.

Variants of: B1
Details: with tera_mouse Vcp
F253S was tested, and the “effect of a mutation on the interaction” value was “disrupting interaction”.

Variants of: B2
Details: with tera_rat Vcp
Target sequence in this assay (P46462 whole entry): as above
In the case of F215S, the “effect of a mutation on the interaction” value is reported as “disrupting interaction”.
